Assay results from US20230355720A1, “PHARMACEUTICAL COMPOSITION FOR PREVENTING OR TREATING BONE DISEASES, COMPRISING TRIPLE AGONIST OR CONJUGATE THEREOF HAVING ACTIVITY WITH RESPECT TO ALL OF GLUCAGON, GLP-1 AND GLP RECEPTORS” (HANMI PHARM. CO., LTD., priority 2020, published 2023).
Bridge positions count the residues as written; N and C are the ends. Square brackets hold non-standard residues; d marks the D form. Ends that are not written are not given here. * marks the point of attachment. Acetyl(2-(4-imidazolyl)) = O=C(Cc1c[nH]cn1)*; Aib = CC(C)(N)C(=O)O

T1: human GIP receptor (human, UniProt P48546 22-466)
T1 sequence (looked up): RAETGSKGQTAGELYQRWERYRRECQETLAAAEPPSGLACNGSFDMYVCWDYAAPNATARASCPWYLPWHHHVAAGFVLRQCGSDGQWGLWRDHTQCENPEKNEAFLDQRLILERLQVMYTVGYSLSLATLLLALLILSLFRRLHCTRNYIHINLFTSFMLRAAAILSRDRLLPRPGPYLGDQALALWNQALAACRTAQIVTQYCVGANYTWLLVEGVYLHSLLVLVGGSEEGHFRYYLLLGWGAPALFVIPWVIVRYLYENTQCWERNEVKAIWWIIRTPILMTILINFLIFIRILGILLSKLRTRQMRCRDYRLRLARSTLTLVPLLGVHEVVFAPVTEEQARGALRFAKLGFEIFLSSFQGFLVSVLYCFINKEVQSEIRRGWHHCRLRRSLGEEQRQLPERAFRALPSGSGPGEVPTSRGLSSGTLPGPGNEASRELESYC


Biological target: human GCG receptor (human, UniProt P47871 26-477)
Assay: cell-based or functional assay

Chain of human GCG receptor (P47871 26-477): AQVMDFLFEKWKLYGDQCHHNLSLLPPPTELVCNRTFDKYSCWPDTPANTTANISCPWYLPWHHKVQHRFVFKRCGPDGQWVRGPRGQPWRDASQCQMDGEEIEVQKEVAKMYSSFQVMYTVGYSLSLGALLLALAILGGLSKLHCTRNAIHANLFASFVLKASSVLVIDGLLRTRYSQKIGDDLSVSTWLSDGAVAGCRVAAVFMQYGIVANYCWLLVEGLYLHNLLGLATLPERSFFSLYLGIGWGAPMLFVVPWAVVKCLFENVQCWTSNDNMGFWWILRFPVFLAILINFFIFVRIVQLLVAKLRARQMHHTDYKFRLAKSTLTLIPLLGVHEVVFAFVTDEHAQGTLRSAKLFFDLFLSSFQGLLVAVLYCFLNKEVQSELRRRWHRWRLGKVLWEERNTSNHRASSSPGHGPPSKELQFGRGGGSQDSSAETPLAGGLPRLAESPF

Binder	In vitro activity (%) compared with native peptide, vs Glucagon
HGQGTFTSDCSKYMDGQAAQDFVAWLLAGGPSSGAPPPS [triple agonist of SEQ ID NO: 45]	< 0.1%
HGQGTFTSDCSKYLDEQHAQEFVAWLLAGGPSSGAPPPS [triple agonist of SEQ ID NO: 46]	< 0.1%
HGQGTFTSDCSKYLDGQRAQEFVAWLLAGGPSSGAPPPS [triple agonist of SEQ ID NO: 47]	< 0.1%
HGQGTFTSDCSKYLDGQRAQDFVNWLLAGGPSSGAPPPS [triple agonist of SEQ ID NO: 48]	< 0.1%
[Acetyl(2-(4-imidazolyl))][Aib]QGTFTSDYSICMDEIHQKDFVNWLLNTK (bridge 16-20) [triple agonist of SEQ ID NO: 49]	< 0.1%
H[Aib]QGTFTSDYSKYLDEKRAKEFVQWLLDHHPSSGQPPPSC (bridge 16-20) [triple agonist of SEQ ID NO: 50]	50.5%
H[Aib]EGTFTSDYSIAMDEIHQKDFVNWLLAQC (bridge 16-20; not fully specified) [triple agonist of SEQ ID NO: 53]	8.4%
H[Aib]EGTFTSDYSIAMDEIHQKDFVDWLLAEC (bridge 16-20) [triple agonist of SEQ ID NO: 54]	1.4%
H[Aib]QGTFTSDVSSYLDGQAAKEFVAWLLKGC [triple agonist of SEQ ID NO: 6]	< 0.1%
H[Aib]QGTFTSDYSIAMDEIHQKDFVNWLLAQC (bridge 16-20; not fully specified) [triple agonist of SEQ ID NO: 55]	0.7%
H[Aib]QGTFTSDYSIAMDEIHQKDFVNWLLNTC (bridge 16-20) [triple agonist of SEQ ID NO: 57]	< 0.1%
H[Aib]QGTFTSDYSKYLDEKRQKEFVQWLLNTKC (bridge 16-20) [triple agonist of SEQ ID NO: 58]	2.6%
[Acetyl(2-(4-imidazolyl))][Aib]QGTFTSDYSICMDEKHQKDFVNWLLNTK (bridge 16-20; not fully specified) [triple agonist of SEQ ID NO: 59]	< 0.1%

Biological target: human GLP-1 receptor (human, UniProt P43220 24-463)
Assay: cell-based or functional assay

Binder	In vitro activity (%) compared with native peptide, vs GLP-1
HGQGTFTSDCSKYMDGQAAQDFVAWLLAGGPSSGAPPPS [triple agonist of SEQ ID NO: 45]	6.6%
HGQGTFTSDCSKYLDEQHAQEFVAWLLAGGPSSGAPPPS [triple agonist of SEQ ID NO: 46]	1.4%
HGQGTFTSDCSKYLDGQRAQEFVAWLLAGGPSSGAPPPS [triple agonist of SEQ ID NO: 47]	2.4%
HGQGTFTSDCSKYLDGQRAQDFVNWLLAGGPSSGAPPPS [triple agonist of SEQ ID NO: 48]	1.5%
[Acetyl(2-(4-imidazolyl))][Aib]QGTFTSDYSICMDEIHQKDFVNWLLNTK (bridge 16-20) [triple agonist of SEQ ID NO: 49]	29.8%
H[Aib]QGTFTSDYSKYLDEKRAKEFVQWLLDHHPSSGQPPPSC (bridge 16-20) [triple agonist of SEQ ID NO: 50]	67.4%
H[Aib]EGTFTSDYSIAMDEIHQKDFVNWLLAQC (bridge 16-20; not fully specified) [triple agonist of SEQ ID NO: 53]	161%
H[Aib]EGTFTSDYSIAMDEIHQKDFVDWLLAEC (bridge 16-20) [triple agonist of SEQ ID NO: 54]	30.6%
H[Aib]QGTFTSDVSSYLDGQAAKEFVAWLLKGC [triple agonist of SEQ ID NO: 6]	17%
H[Aib]QGTFTSDYSIAMDEIHQKDFVNWLLAQC (bridge 16-20; not fully specified) [triple agonist of SEQ ID NO: 55]	27.1%
H[Aib]QGTFTSDYSIAMDEIHQKDFVNWLLNTC (bridge 16-20) [triple agonist of SEQ ID NO: 57]	11.7%
H[Aib]QGTFTSDYSKYLDEKRQKEFVQWLLNTKC (bridge 16-20) [triple agonist of SEQ ID NO: 58]	39.1%
[Acetyl(2-(4-imidazolyl))][Aib]QGTFTSDYSICMDEKHQKDFVNWLLNTK (bridge 16-20; not fully specified) [triple agonist of SEQ ID NO: 59]	40.3%

Biological target: T1, human GIP receptor
Assay: cell-based or functional assay

Binder	In vitro activity (%) compared with native peptide, vs GIP
HGQGTFTSDCSKYMDGQAAQDFVAWLLAGGPSSGAPPPS [triple agonist of SEQ ID NO: 45]	< 0.1%
HGQGTFTSDCSKYLDEQHAQEFVAWLLAGGPSSGAPPPS [triple agonist of SEQ ID NO: 46]	< 0.1%
HGQGTFTSDCSKYLDGQRAQEFVAWLLAGGPSSGAPPPS [triple agonist of SEQ ID NO: 47]	< 0.1%
HGQGTFTSDCSKYLDGQRAQDFVNWLLAGGPSSGAPPPS [triple agonist of SEQ ID NO: 48]	< 0.1%
[Acetyl(2-(4-imidazolyl))][Aib]QGTFTSDYSICMDEIHQKDFVNWLLNTK (bridge 16-20) [triple agonist of SEQ ID NO: 49]	3.3%
H[Aib]QGTFTSDYSKYLDEKRAKEFVQWLLDHHPSSGQPPPSC (bridge 16-20) [triple agonist of SEQ ID NO: 50]	2.7%
H[Aib]EGTFTSDYSIAMDEIHQKDFVNWLLAQC (bridge 16-20; not fully specified) [triple agonist of SEQ ID NO: 53]	1.3%
H[Aib]EGTFTSDYSIAMDEIHQKDFVDWLLAEC (bridge 16-20) [triple agonist of SEQ ID NO: 54]	0.1%
H[Aib]QGTFTSDVSSYLDGQAAKEFVAWLLKGC [triple agonist of SEQ ID NO: 6]	< 0.1%
H[Aib]QGTFTSDYSIAMDEIHQKDFVNWLLAQC (bridge 16-20; not fully specified) [triple agonist of SEQ ID NO: 55]	2.4%
H[Aib]QGTFTSDYSIAMDEIHQKDFVNWLLNTC (bridge 16-20) [triple agonist of SEQ ID NO: 57]	0.3%
H[Aib]QGTFTSDYSKYLDEKRQKEFVQWLLNTKC (bridge 16-20) [triple agonist of SEQ ID NO: 58]	0.2%
[Acetyl(2-(4-imidazolyl))][Aib]QGTFTSDYSICMDEKHQKDFVNWLLNTK (bridge 16-20; not fully specified) [triple agonist of SEQ ID NO: 59]	4%
